Experimental data: the DeepSol protein solubility set

Assay: soluble on expression in E. coli; label from the status in PepcDB or PDB records

Row | Sequence | soluble on expression in E. coli
1 | MRKSRDANPFKAMPNILYPDELMDKAYNRSEKIAGELRTTTRGLSTPKSKIIEDNKIRTTASVISDNLLKIVEKTPSIDNLDPFYREILEIMVGSDEFKKSLAAVQWASEIVKKLGTQYSRKVKKAPSPQATSIVRKEFIGRVSSVLKQIYPNMAFLGVARNKLKNIPTVKNLPSVVIAGYPNVGKSTLLRTLTDAEPEVNSYPFTTKGLNIGYTEEGIQIIDTPGVLDRPIYERNDIELHAVVAINYLSDMILFVIDPTEFCGFTMEEQFNLLQEIRKTFNVPILVALTKMDVDEIEGLDKLEEDLGEYEVLKVSSFKKEGIADLRERLLDILDEQGLMGLLEELEHHHHHH | soluble
2 | MGSDKIHHHHHHMTISISEPTPPASLLAIKDEIRAEALKLGFSVCGFASATDAWPNGGWLREFVQAERHGAMGWMEETLERRSHPTAMWTDAKSAVVLGVNYGPDIDPLEQLADPARAAISVYAQGDDYHDVIKKRLKVLAGWMHRRFGQEVKVFVDTAPLLEKPLAQRAGLGWQGKHTNLVSRQFGSWLFLGSVLTTLDLPADDAEVDHCGSCRACLDVCPTNAFPAPRQLDARRCISYLTIELSGPIPAEFRPAMGNRIYGCDDCLAVCPWNKFASLSNEAKLVAREALRQPSLAELAVLDDAAFRALFSKNPIKRIGRDRFVRNVLYAIGNSGDAGLMAVVEPLLDDPAPVVRGAAVWAARRLLGDDAAALKRGENDESVLAEWS | not soluble
3 | HETLTSPPLREGRYIMAVTGCGPVEGVKEDGAFAFRGIPYAKPPVDRLRWKPAELIDDINMCWNDTLQTHNSSVVCTQRLGNGTTVGDEDCLYLDVVTPHVRYNNPLPVVVLIGAESLAGPSPGILRPSARYSRSHDVIFVRPNFRLGVFGFLALDALTKEAHPPTSGNYALTDIIAVLNWIKLNIVHFGGDPQSVTLLGHRAGATLVTLLVNSQKVKGLYTRAWASSGSAILPGKPLSESGKQNEQLMATLECADIQCLREASSERLWAATPDTWLHFPVDLPQPQEANASGSRHEWLVLDGDVVFEHPSDTWKREQANDKPVLVMGATAHEAHTEKLRELHANWTREEVRAYLENSQIGALGLTDEVIEKYNASSYASLVSIISDIRSVCPLLTNARQQPSVPFYVVTQGEGPDQLATVDADVQAILGRYEPHTVEQRRFVSAMQQLFYYYVSHGTVQSFVQNRRVINVGQDAQPEEDYLPCNYWISKDIVPRYARVD | soluble
4 | MKRKSKAGGASDKSKSPKLKKRRSVVLEPIHISPKYLEDKFKTEFKKGFEKSNGPFPHWQLRNFVDNSDNVVEKIEDELQNFEGWKRKENDLYSLYQSDDLKSINPVENPAVFSFRQFLYKEVKEWLQNVSGVELTEQVDCNGSCYARTDSLLPHNDLIETRRFAFVYYITSADWDSEVNGGDLQLFNHDKKLQPTSVAAQFSPLRNSFMLFEVSEKSWHRVAEMLSEEPRLSINGWFHSTRRIEPKKPAVEAIQRFVPEAACKLSKLISKEYLQKERQDEVQQTFADSSELNLSKFIFEEIHDNAYSELISNPSCFETVGPVSKRHVARLDEEKSADLQNTKRIIQCLKSKNFAKLAAKLTGVTVTGAQTSVKVSRVEHGTYWVLGDEDAEQSSTDGYCLDVHLFVQKTNWDDEAGGDLIYIEEGDTEELLRISPSPNAASIVFREPGVISFMKYANCKSSDPFFLFTVSFYNVQVVED | not soluble
5 | MGSDKIHHHHHHMSPLAYSVANVNLESSHPTGALSVNLLSGRDVRRWDDFVSCCREATFFHRAGWQTVIERAFGHKTWFLYAECEGEIQGVLPLAEINSRLFGHSLSSLPFCVYGGIAADSQTVRDALDRSAQKLAQELQVDYLEYRNLKPHHADWHGKDLYVTFRKEIASEIEQNMSAIPRKQRAMVRKGIKAGLESVVDQDIERFFSAYSASVHRLGTPVFSRKYFRLLKEVFAEDCELMIIVKDNRTISAVMSFYFRDEVLPYYGGGTGEAREVAGNDFMYWELMRRACEKGCKVFDFGRSKRGSGSFDFKKNWGFEPQPLHYEYQLHQAKEVPDHNPLNPRYQIFIKAWQKLPLGLANLVGPHIVRNLG | not soluble
6 | MPAQIEDYALLGNCRSAALVSRDGALDWLCLPRFDAPAVFAALLGNEENGRWRLAPCDPVTHSSRQYLGDTLVLETTWVTASGRARVLDFMPLGEVNSVVRIVEGLSGETHFEMDLVMRFDYGLEHHHHHH | not soluble
7 | MATSLQAAATFLQPAKIAASPSRNVHLRSNQTVGKSFGLDSSQARLTCSLHSDLKDFAGKCSDAAKIAGFALATSALVVSGAGAEGAPKRLTYDEIQSKTYMEVKGTGTANQCPTIDGGSETFSFKAGKYTGKKFCFEPTSFTVKADSVSKNAPPDFQNTKLMTRLTYTLDEIEGPFEVGSDGSVKFKEEDGIDYAAVTVQLPGGERVPFLFTVKQLEASGKPESFSGKFLVPSYRGSSFLDPKGRGGSTGYDNAVALPAGGRGDEEELSKENVKNTAASVGEITLKITKSKPETGEVIGVFESLQPSDTDLGAKVPKDVKIQGVWYGQIE | soluble
8 | VMPFTEHDKIILRSYEAVVDGIASLIGPFCEIVLHSLEDLNTSAIKIANGENTGRQVGSPITDLALKMLKDIEGSERNFSRSYFTRAKGGVLMKSITVAIRNGENRVIGLLCINVNLDAPFSQVLQSFMPTQEAKEAA | soluble
9 | MPNLSCGVDNCAYNQNDMCSLNSIKVNGSFANHSEATCCGSFVEKGGFTNAAVDMGPAEPATSVACEAEKCCYNKNCKCHAESIDISGDYAQHQDNTECSTFRQELEHHHHHH | soluble
10 | MSLPYSSSGVGHNGFDKADLHIHTKCSDGLFTPEEIVHKAIHVGLKAISITDHDTVTGIDQAKPLALELGLELIPGVEMSSAYKGYDIHILGYFFDYQQSELKGYLDHCRLLRTERAERMVQKLAKMGVKIEIEQIIMKAQNGSVGRPHIAAVLQDEGFVKSFSEAFSKYLGSHSPAYVKSIETHPEEVIRLINEAGGLSFLAHPAQNVPDEILRQLISFGLDGLEIIHPSHDTYRQNYYREIANEYFLLFSGGSDYHGPKDHEDNFGQVWIPYEWVTKMKSRLAPAVKEGHHHHHH | soluble
11 | MRGSHHHHHHGSESETLTAKATITTTTLPSHDETKTESTEFEKNQKRYQDLISTFPHEKGWRPKEPLIEYGGYWWLPSLLEGCIHAQEFFQARPSDFLVCSYPKTGTTWLKALTFAIANRSRFDDSSNPLLKRNPHEFVPYIEIDFPFFPEVDVLKDKGNTLFSTHIPYELLPDSVVKSGCKMVYIWREPKDTFISMWTFLHKERTELGPVSNLEESFDMFCRGLSGYGPYLNHILAYWKAYQENPDRILFLKYETMRADPLPYVKSLAEFMGHGFTAEEEEKGVVEKVVNLCSFETLKNLEANKGEKDREDRPGVYANSAYFRKGKVGDWSNYLTPEMAARIDGLMEEKFKGTGLLEHGKKLN | soluble
12 | MATHGQTCARPMCIPPSYADLGKAARDIFNKGFGFGLVKLDVKTKSCSGVEFSTSGSSNTDTGKVTGTLETKYKWCEYGLTFTEKWNTDNTLGTEIAIEDQICQGLKLTFDTTFSPNTGKKSGKIKSSYKRECINLGCDVDFDFAGPAIHGSAVFGYEGWLAGYQMTFDSAKSKLTRNNFAVGYRTGDFQLHTNVNDGTEFGGSIYQKVCEDLDTSVNLAWTSGTNCTRFGIAAKYQLDPTASISAKVNNSSLIGVGYTQTLRPGVKLTLSALVDGKSINAGGHKVGLALELEA | soluble
13 | RRAKALLDFERHDDDELGFRKNDIITIISQKDEHCWVGELNGLRGWFPAKFVEVLDERSKEYSIA | soluble
14 | MKTLIKNGKIIKKENQLIEAALWLENGVIHAIGESFDEADFEQVFDANGQLITPGLVDVHVHFREPGFTYKETIKTGSKAAARGGFTTVCAMPNLNPVPDTAEKLSEVYDLIQKDAVVKVLQYAPITEELRSEVLTNQKALKEAGAFAFTNDGVGVQTAGTMYLAMKEAAALNMALVAHTEDESLLFGGVMHEGEVSKKLGLPGILSATEASQIARDITLAKETGVHYHVCHVSTEESVRVIRDAKKAGIHVTAEVSPHHLILVDEDIPGDEGFWKMNPPLRGLADRQALIDGLLDGTIDCIATDHAPHGLEEKQQSFLNAPFGIVGSETAFQLIYTNFVETGIFTLEQVIDWMAVKPAEIFGLNAGTLTIGAPADIAVFDLATAAPIDAEAFESMAVNTPFTGWTVKGKTLMTFVDGALAWSEEAQ | not soluble
15 | MPLVNSHIVEECLPFTSLRLDPEDINLSMGAGYVPDAEIQAISDALETEIAGICTPRFLYALFDAEPAGTCEVGVNGISLKTGSVITPYLKDAAGYVLFVATAGYEFEAFQHRIGSQGDILREFLLDAYGSAIAEAVVREVCRKVESRMFPLGYGVSHPYSPGYCGWHVTQQQLLFSCLPEFPCGVRLSDSSLMSPIKSVSGIIAYGPCIVKRKYGCELCGKADCYKNRNKLNRLEHHHHHH | soluble
16 | MTVASTLGLNETQYATDDCLEEIINNTRAVRQDSEKTRFKLQINNFLAEVASGSLVINSDLIGSIEKRIADIDKLMSEQLSLIMHATEFQKIESAWTGLYKLVQASVTENVKYTVLHCTKKELLKDFKSASDFDQSVLFKNIYESEYGTFGGTPYSAFVGDFYFDNTPQDIDLLEHISHVAASAHAPFLSAIAPGMLSMSSFSELPYPRDLAKLFETTDYARWRSFRQTDDSRYVGLTLPQSLGRIPYGMKTIPAETFNFEEHISEDNSGKDYLWVNTAFELACRIVDAFEEYGWCAAIRGVEGGGLVKSLPAYNYVSHTGERLLQCPTEVAISDRREKELSDLGFIPLVYCKGTDFAAFFAVQSVNKARLYNTDQANANAKLSSQLQYILATSRFAHYLKVIVRDKVGSFMSRTECQTYLQNWIMQYVVASDNAGQETKARYPLREASVEVIEVPGSPGNYRAIAWIKPHFQLEGLSMSLRLVADLPSSVS | not soluble
17 | KTTVRVGLVQWQMRPYKTLDDVFEQVEFFVDAVSDYKSDFVLFPEYFNAPLMAKFNHLGEAQSIRGLAQYTEEVRDRFINLAISYNINIITGSMPYVKEDGGLYNVGFLVRRDGSYEMYEKVHVTPDEIKSWGLSGGKMVQTFDTDCAKIGILICYDVEFPELSRIMADQGMQILFVPFLTDTQNGYSRVRVCAQARAIENECFVVIAGSVGNLPRVHNMDIQYAQSGVFTPCDFAFPTDGKRAEATPNTEMILVSDVDLNLLNELHTYGSVRNLRDRRHDLYELKIKK | not soluble
18 | MSLRAPRRSNADGLSENVLKAILEPAAAYMAETQKMKEEGNENGGSENTNIDQRNQLLQQASQRGSIGSFLDTTSLSTCSKRSLHSSRLTLSDSKEFYKTVGCRWIRSVRHGDVSTVKKMLEENSELVNYAPTYGPLALHLAAARSDRSIILLLLAKGAEVDSRDAAGYTCLQLAIRRGNQSLAHFLILQGANIELIDPDGRGIIDYDGWSGEDQRSAEKHFYGKIILRPKAHSFVGSPSSISMKSSKSTRTMRPSSTPNDSMISEYESSNLKRNEKQRSSWMSFFKSHTIFGSNSKS | not soluble
19 | MAHHHHHHMRGWTAIRSPQLPTLHHRTVVEHTRPQKKKAKKKHGGRVRLCVWRCRCLPALAAKKTKQEGKKCVLRPTSPRRTPTRHGSLSAPFVAAPPHACSRRGAQGRRHERVGGCASGAVGRETHGTPHRKSAEETIKRGKSRKKKKTSIVIAPKSKKEGMWGVRELKRTN | soluble
20 | MANVLCNRARLVSYLPGFCSLVKRVVNPKAFSTAGSSGSDESHVAAAPPDICSRTVWPDETMGPFGPQDQRFQLPGNIGFDCHLNGTASQKKSLVHKTLPDVLAEPLSSERHEFVMAQYVNEFQGNDAPVEQEINSAETYFESARVECAIQTCPELLRKDFESLFPEVANGQTNDSDWLEHHHHHH | soluble
21 | QILVVRNQVIFPYNGFELDVGRERSKKLIKALKNLKTKRLVLVTQKNSDQLNPEFDDIYHCGTLCDIDEIIEVPSEDGKTADYKIKGKGLQRVAITSFSDADLTKYDHHFLNSTLTENKALDKLLERIFPDKEDFAEILDSLNSFLELQELKKLSKVPKDIKRYDIITFKLASLIFKDITLQQAILEENDIEKRLQKIIGS | soluble
